The source of these data is patent US20110256153A1 (IMMUNOGEN, published 2011).

For test [1], the target named is T1, human CD37 (human, UniProt P11049 1-278).
T1 construct: Tetraspanin antigen; Expressed on 300-19 cells transfected with pSRa-CD37 (entire CDS) or endogenous on WSU-DLCL-2, BJAB and Ramos lymphoma cells; also called CD37 antigen; human CD37 wildtype
T1 sequence: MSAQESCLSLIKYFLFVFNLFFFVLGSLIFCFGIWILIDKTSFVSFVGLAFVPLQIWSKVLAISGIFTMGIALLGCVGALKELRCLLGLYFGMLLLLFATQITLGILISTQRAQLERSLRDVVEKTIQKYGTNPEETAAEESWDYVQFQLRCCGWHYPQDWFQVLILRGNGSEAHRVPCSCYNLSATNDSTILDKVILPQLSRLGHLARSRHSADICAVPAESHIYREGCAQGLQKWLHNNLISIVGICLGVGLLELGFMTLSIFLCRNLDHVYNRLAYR
The experiment in a line: competition flow cytometry on BJAB cells; competitor PE-labeled muCD37-3 (1 nM). As to the method: Flow cytometry binding assays using BJAB cells and a competitive binding format were used to evaluate binding affinity of chimeric and humanized versions of CD37-3. BJAB cells were incubated with a 1 nM concentration of PE-labeled muCD37-3 antibody and competition was measured by adding varying amounts of muCD37-3, chCD37-3, huCD37-3v1.0 or huCD37-3v1.01. The samples were incubated for 3 hrs at 4° C. Then, the cells were pelleted, washed with FACS buffer and resuspended in 200 μL of PBS containing 1% formaldehyde. Samples were acquired using a FACSCalibur flow cytometer with the HTS multiwell sampler and analyzed using CellQuest Pro (all from BD Biosciences, San Diego, US). The resulting mean PE fluorescence was plotted against the amount of competing antibody used in a semi-log plot. FIG. 9B depicts the dose-response curves generated by non-linear regression for each antibody. The value for the apparent dissociation constant (Kd) of each antibody was calculated using GraphPad Prism v4 (GraphPad software, San Diego, Calif.).
(In general: Flow cytometry measures light scatter and fluorescence of single cells or particles in a stream.)

Test [2] concerns the target T1, human CD37. The experiment in a line: flow cytometry titration on WSU-DLCL-2 cells; EC50 taken as apparent Kd. Here is the method:
(§1) Binding specificity was tested by flow cytometry using purified antibodies. […] All murine antibodies were incubated for 3 h with either CD37-expressing 300-19 cells or the non-transfected 300-19 cells (1×10⁵ cells per sample) in 100 μL FACS buffer (RPMI-1640 medium supplemented with 2% normal goat serum). Then, the cells were pelleted, washed, and incubated for 1 h with 100 μL of FITC-conjugated goat anti-mouse IgG-antibody (Jackson Laboratory, 6 μg/mL in FACS buffer). The cells were pelleted again, washed with FACS buffer and resuspended in 200 μL of PBS containing 1% formaldehyde. Samples were acquired using a FACSCalibur flow cytometer with the HTS multiwell sampler or a FACS array flow cytometer and analyzed using CellQuest Pro (all from BD Biosciences, San Diego, US).
To verify that the antibodies can also bind to endogenously expressed CD37, binding experiments were performed with CD37-positive WSU-DLCL-2 lymphoma cells and the muCD37-3, muCD37-12, muCD37-8, muCD37-10 or muCD37-14 antibodies. WSU-DLCL-2 cells were incubated with varying concentrations of murine antibodies and processed as described above for flow cytometry analysis. Data analysis was performed using CellQuest Pro (BD Biosciences, San Diego, US) and for each sample the mean fluorescence intensity for FL1 (MFI) was exported and plotted against the antibody concentration in a semi-log plot (FIG. 3). […]

The target in the next test is T2, hCD37-M45 (human/murine chimera, UniProt P11049 1-281).
T2 construct: stably expressed on 300-19 cells; also called hCD37-M45 variant
T2 chain: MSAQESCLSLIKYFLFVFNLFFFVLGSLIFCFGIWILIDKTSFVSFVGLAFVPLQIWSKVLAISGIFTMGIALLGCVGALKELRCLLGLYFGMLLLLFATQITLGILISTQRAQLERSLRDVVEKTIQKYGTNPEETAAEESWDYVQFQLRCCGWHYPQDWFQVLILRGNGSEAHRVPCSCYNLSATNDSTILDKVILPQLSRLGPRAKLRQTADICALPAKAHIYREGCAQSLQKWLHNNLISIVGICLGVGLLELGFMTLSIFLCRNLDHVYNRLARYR
The test is described as follows: flow cytometry, 300-19 cells expressing hCD37-M45. Here is the method: as §1
(§2) Binding of various CD37 antibodies to cells expressing human CD37 wildtype and variants was analyzed by flow cytometry using 1.5 μg/mL of each antibody. The isolated antibodies of this invention were compared to commercially available CD37 antibody WR17, as well as the TRU-016 SMIP. […] Likewise, all antibodies tested bound the hCD37-M3 variant (FIG. 18B). In contrast, the isolated antibodies of this invention bound the hCD37-M1 variant, while TRU-016 and WR17 were unable to bind hCD37-M1 variant (FIG. 19A). The CD37-50 and CD37-51 antibodies and TRU-016 were also able to bind the hCD37-M45 variant. […] In contrast, the CD37-3, CD37-12, CD37-38, CD37-56 and CD37-57 antibodies require at least one of the AA residues in the hCD37-M45 variant that were changed to the corresponding murine AA residues for binding to the CD37 antigen.

A further test has as its target T3, hCD37-M1 (human/murine chimera, UniProt P11049 1-281).
T3 construct: stably expressed on 300-19 cells; also called hCD37-M1 variant
T3 chain: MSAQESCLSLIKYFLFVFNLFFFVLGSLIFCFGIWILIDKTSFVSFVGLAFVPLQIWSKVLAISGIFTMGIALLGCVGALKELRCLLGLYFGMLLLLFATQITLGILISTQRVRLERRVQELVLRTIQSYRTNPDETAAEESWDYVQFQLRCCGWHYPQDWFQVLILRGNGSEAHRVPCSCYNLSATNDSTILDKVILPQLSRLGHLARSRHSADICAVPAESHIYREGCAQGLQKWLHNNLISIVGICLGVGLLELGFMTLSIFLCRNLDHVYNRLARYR
The test is described as follows: flow cytometry, 300-19 cells expressing hCD37-M1, 1.5 µg/mL antibody. As to the method:
as §1, §2

Test [3] concerns the target T1, human CD37. The test is described as follows: flow cytometry titration on Ramos cells; apparent Kd. Here is the method: as §1
The chimeric antibodies chCD37-3 and chCD37-12 were assayed for their binding affinity to Ramos cells in comparison to their murine counterparts. Flow cytometry binding assays using Ramos cells and muCD37-3, chCD37-3, muCD37-12 and chCD37-12 antibodies were carried out and analyzed as described in Example 2 using secondary FITC-conjugated goat-anti-murine and -anti-human antibodies. FIG. 9A depicts the dose-response curves generated by non-linear regression for each antibody. The value for the apparent dissociation constant (Kd) of each antibody was calculated using GraphPad Prism v4 (GraphPad software, San Diego, Calif.).

B1: muCD37-3 (antibody, mouse IgG2a, kappa)
heavy: QVQVKESGPGLVAPSQSLSITCTVSGFSLTTSGVSWVRQPPGKGLEWLGVIWGDGSTNYHSALKSRLSIKKDHSKSQVFLKLNSLQTDDTATYYCAKGGYSLAHWGQGTLVTVSAAKTTAPSVYPLAPVCGDTTGSSVTLGCLVKGYFPEPVTLTWNSGSLSSGVHTFPAVLQSDLYTLSSSVTVTSSTWPSQSITCNVAHPASSTKVDKKIEPRGPTIKPCPPCKCPAPNLLGGPSVFIFPPKIKDVLMISLSPIVTCVVVDVSEDDPDVQISWFVNNVEVHTAQTQTHREDYNSTLRVVSALPIQHQDWMSGKEFKCKVNNKDLPAPIERTISKPKGSVRAPQVYVLPPPEEEMTKKQVTLTCMVTDFMPEDIYVEWTNNGKTELNYKNTEPVLDSDGSYFMYSKLRVEKKNWVERNSYSCSVVHEGLHNHHTTKSFSRTPGK
light: DIQMTQSPASLSVSVGETVTITCRASENIRSNLAWYQQKQGKSPQLLVNVATNLADGVPSRFSGSGSGTQYSLKINSLQSEDFGTYYCQHYWGTTWTFGGGTKLEIKRADAAPTVSIFPPSSEQLTSGGASVVCFLNNFYPKDINVKWKIDGSERQNGVLNSWTDQDSKDSTYSMSSTLTLTKDEYERHNSYTCEATHKTSTSPIVKSFNRNEC
notes: Murine hybridoma antibody; also called murine CD37-3 antibody; muCD37-3-PE
As a reminder, the EC50 is the concentration needed to bring the measured effect to its halfway point. A lower EC50 goes with greater potency. Molecule B1 had an EC50 with human CD37 [1] of 0.8 nM. The figures for the Kd in the test with human CD37 [2] and with human CD37 [3] were 0.52 nM and 0.4 nM, respectively. Also, the binding result with hCD37-M45 is on record as “no binding (tested: 1.5 µg/mL)”; with hCD37-M1, “binds”.
